Assay results: article PMC3382979 (Journal of Structural Biology, 2012)
Changes are numbered by the printed parent chain. Numbers in names are those of the source.

B1: His6-NSF-myc (1-744), N-Ethylmaleimide Sensitive Factor, wild type (enzyme, Chinese hamster (from CHO cells), UniProt P18708 1-744, looked up)
chain: MAGRSMQAARCPTDELSLSNCAVVSEKDYQSGQHVIVRTSPNHKYIFTLRTHPSVVPGSVAFSLPQRKWAGLSIGQEIEVALYSFDKAKQCIGTMTIEIDFLQKKNIDSNPYDTDKMAAEFIQQFNNQAFSVGQQLVFSFNDKLFGLLVKDIEAMDPSILKGEPASGKRQKIEVGLVVGNSQVAFEKAENSSLNLIGKAKTKENRQSIINPDWNFEKMGIGGLDKEFSDIFRRAFASRVFPPEIVEQMGCKHVKGILLYGPPGCGKTLLARQIGKMLNAREPKVVNGPEILNKYVGESEANIRKLFADAEEEQRRLGANSGLHIIIFDEIDAICKQRGSMAGSTGVHDTVVNQLLSKIDGVEQLNNILVIGMTNRPDLIDEALLRPGRLEVKMEIGLPDEKGRLQILHIHTARMRGHQLLSADVDIKELAVETKNFSGAELEGLVRAAQSTAMNRHIKASTKVEVDMEKAESLQVTRGDFLASLENDIKPAFGTNQEDYASYIMNGIIKWGDPVTRVLDDGELLVQQTKNSDRTPLVSVLLEGPPHSGKTALAAKIAEESNFPFIKICSPDKMIGFSETAKCQAMKKIFDDAYKSQLSCVVVDDIERLLDYVPIGPRFSNLVLQALLVLLKKAPPQGRKLLIIGTTSRKDVLQEMEMLNAFSTTIHVPNIATGEQLLEALELLGNFKDKERTTIAQQVKGKKVWIGIKKLLMLIEMSLQMDPEYRVRKFLALLREEGASPLDFD
modifications: (Ni2+-NTA)2-Cy3 bound to the His6 tag (ultracentrifugation only; 1 mole of dye per mole of NSF hexamer)
B2: His6-NSF-D1D2-myc fragment (206-744) (domain or fragment, Chinese hamster (from CHO cells), UniProt P18708 206-744, looked up)
chain: QSIINPDWNFEKMGIGGLDKEFSDIFRRAFASRVFPPEIVEQMGCKHVKGILLYGPPGCGKTLLARQIGKMLNAREPKVVNGPEILNKYVGESEANIRKLFADAEEEQRRLGANSGLHIIIFDEIDAICKQRGSMAGSTGVHDTVVNQLLSKIDGVEQLNNILVIGMTNRPDLIDEALLRPGRLEVKMEIGLPDEKGRLQILHIHTARMRGHQLLSADVDIKELAVETKNFSGAELEGLVRAAQSTAMNRHIKASTKVEVDMEKAESLQVTRGDFLASLENDIKPAFGTNQEDYASYIMNGIIKWGDPVTRVLDDGELLVQQTKNSDRTPLVSVLLEGPPHSGKTALAAKIAEESNFPFIKICSPDKMIGFSETAKCQAMKKIFDDAYKSQLSCVVVDDIERLLDYVPIGPRFSNLVLQALLVLLKKAPPQGRKLLIIGTTSRKDVLQEMEMLNAFSTTIHVPNIATGEQLLEALELLGNFKDKERTTIAQQVKGKKVWIGIKKLLMLIEMSLQMDPEYRVRKFLALLREEGASPLDFD
modifications: (Ni2+-NTA)2-Cy3 bound to the His6 tag (ultracentrifugation only)
B3: His6-NSF-L441A-myc (enzyme, Chinese hamster (from CHO cells), UniProt P18708 1-744, looked up)
chain: B1 chain with L441A
modifications: (Ni2+-NTA)2-Cy3 bound to the His6 tag (ultracentrifugation)
B4: His6-NSF-R67A-myc (enzyme, Chinese hamster (from CHO cells), UniProt P18708 1-744, looked up)
chain: B1 chain with R67A
modifications: (Ni2+-NTA)2-Cy3 bound to the His6 tag (ultracentrifugation)
B5: His6-NSF-D2 fragment (488-744) (domain or fragment, Chinese hamster (from CHO cells), UniProt P18708 488-744, looked up)
chain: IKPAFGTNQEDYASYIMNGIIKWGDPVTRVLDDGELLVQQTKNSDRTPLVSVLLEGPPHSGKTALAAKIAEESNFPFIKICSPDKMIGFSETAKCQAMKKIFDDAYKSQLSCVVVDDIERLLDYVPIGPRFSNLVLQALLVLLKKAPPQGRKLLIIGTTSRKDVLQEMEMLNAFSTTIHVPNIATGEQLLEALELLGNFKDKERTTIAQQVKGKKVWIGIKKLLMLIEMSLQMDPEYRVRKFLALLREEGASPLDFD
modifications: (Ni2+-NTA)2-Cy3 bound to the His6 tag (ultracentrifugation)

Molecular target: the molecule itself
Test: negative-stain electron microscopy, single particle analysis

Point of comparison: B1, “stoichiometry N” value 6. Against it:
- B2 — the same, 6

Molecular target: the molecule itself
Test: AUC

Point of comparison: B4, “% Hexamer” value 55.6 ± 12.5%. Against it:
- B1 — within error, 62 ± 5.74%
- B3 — lower, 34.4 ± 1.06%
- B5 — lower, 28.8 ± 1.92%
- B2 — within error, 44 ± 2.93%

Molecular target: the molecule itself
Test: AUC
Remark: another data set of the same source

Point of comparison: B4, “% Hexamer” value 38.7 ± 4.21%. Against it:
- B1 — higher, 47 ± 3.7%
- B3 — within error, 34.2 ± 2.78%
- B5 — lower, 10.3 ± 0.63%
- B2 — lower, 14.1 ± 0.31%
